T1: FcγRIIb extracellular domain with C-terminal His tag (human, UniProt P31994 43-217)
T1 construct: extracellular domain; also called FcgRIIb; 2b; not shown: His tag attached to the C terminus
T1 sequence (looked up): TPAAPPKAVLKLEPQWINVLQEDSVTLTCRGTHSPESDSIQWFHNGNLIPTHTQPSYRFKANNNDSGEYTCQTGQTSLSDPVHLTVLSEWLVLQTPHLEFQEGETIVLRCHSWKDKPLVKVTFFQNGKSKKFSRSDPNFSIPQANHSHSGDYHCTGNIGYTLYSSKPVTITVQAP

B1: GpH7-A5/GpH7-B3 variant L328_04F/GpL16-k0 (antibody, human IgG1, kappa)
heavy 1: not shown
heavy 2: not shown
light: DIVMTQSPLSLPVTPGEPASISCQASESLVHSNRNTYLHWYLQKPGQSPQLLIYKVSNRFSGVPDRFSGSGSGTDFTLKISRVEAEDVGVYYCSQNTHVPPTFGQGTKVEIERTVAAPSVFIFPPSDEQLKSGTASVVCLLNNFYPREAKVQWKVDNALQSGNSQESVTEQDSKDSTYSLSSTLTLSKADYEKHKVYACEVTHQGLSSPVTKSFNRGEC
notes: Heterodimerized IgG1; alteration in one H chain only; also called He Ab
B2: GpH7-A5/GpH7-B3 variant P271_14T/GpL16-k0 (antibody, human IgG1, kappa)
heavy 1: not shown
heavy 2: not shown
light: B1 light
notes: as for B1
B3: GpH7-A5/GpH7-B3 variant N325_11K/GpL16-k0 (antibody, human IgG1, kappa)
heavy 1: not shown
heavy 2: not shown
light: B1 light
notes: as for B1
B4: GpH7-A5/GpH7-B3 variant N325_20W/GpL16-k0 (antibody, human IgG1, kappa)
heavy 1: not shown
heavy 2: not shown
light: B1 light
notes: as for B1
B5: GpH7-A5/GpH7-B3 variant Y296_16H/GpL16-k0 (antibody, human IgG1, kappa)
heavy 1: not shown
heavy 2: not shown
light: B1 light
notes: as for B1
B6: GpH7-A5/GpH7-B3 variant Y296_01G/GpL16-k0 (antibody, human IgG1, kappa)
heavy 1: not shown
heavy 2: not shown
light: B1 light
notes: as for B1
B7: GpH7-A5/GpH7-B3 variant N325_04F/GpL16-k0 (antibody, human IgG1, kappa)
heavy 1: not shown
heavy 2: not shown
light: B1 light
notes: as for B1
B8: GpH7-A5/GpH7-B3 variant N325_13S/GpL16-k0 (antibody, human IgG1, kappa)
heavy 1: not shown
heavy 2: not shown
light: B1 light
notes: as for B1
B9: GpH7-A5/GpH7-B3 variant N325_14T/GpL16-k0 (antibody, human IgG1, kappa)
heavy 1: not shown
heavy 2: not shown
light: B1 light
notes: as for B1
B10: GpH7-A5/GpH7-B3 variant N325_08L/GpL16-k0 (antibody, human IgG1, kappa)
heavy 1: not shown
heavy 2: not shown
light: B1 light
notes: as for B1
B11: GpH7-A5/GpH7-B3 variant P271_09D/GpL16-k0 (antibody, human IgG1, kappa)
heavy 1: not shown
heavy 2: not shown
light: B1 light
notes: as for B1
B12: GpH7-A5/GpH7-B3 variant N325_07I/GpL16-k0 (antibody, human IgG1, kappa)
heavy 1: not shown
heavy 2: not shown
light: B1 light
notes: as for B1
B13: GpH7-A5/GpH7-B3 variant N325_03V/GpL16-k0 (antibody, human IgG1, kappa)
heavy 1: not shown
heavy 2: not shown
light: B1 light
notes: as for B1
B14: GpH7-A5/GpH7-B3 variant N325_06M/GpL16-k0 (antibody, human IgG1, kappa)
heavy 1: not shown
heavy 2: not shown
light: B1 light
notes: as for B1
B15: GpH7-A5/GpH7-B3 variant Y296_14T/GpL16-k0 (antibody, human IgG1, kappa)
heavy 1: not shown
heavy 2: not shown
light: B1 light
notes: as for B1
B16: GpH7-A5/GpH7-B3 variant N325_05P/GpL16-k0 (antibody, human IgG1, kappa)
heavy 1: not shown
heavy 2: not shown
light: B1 light
notes: as for B1
B17: GpH7-A5/GpH7-B3 variant N325_19Q/GpL16-k0 (antibody, human IgG1, kappa)
heavy 1: not shown
heavy 2: not shown
light: B1 light
notes: as for B1
B18: GpH7-A5/GpH7-B3 variant N325_09D/GpL16-k0 (antibody, human IgG1, kappa)
heavy 1: not shown
heavy 2: not shown
light: B1 light
notes: as for B1
B19: GpH7-A5/GpH7-B3 variant Y300_10E/GpL16-k0 (antibody, human IgG1, kappa)
heavy 1: not shown
heavy 2: not shown
light: B1 light
notes: as for B1
B20: GpH7-A5/GpH7-B3 variant S298_08L/GpL16-k0 (antibody, human IgG1, kappa)
heavy 1: not shown
heavy 2: not shown
light: B1 light
notes: as for B1

target: T1, FcγRIIb extracellular domain with …; assay: SPR (Biacore), relative binding
Protocol: (§1) Analysis of interaction between objective antibody and the FcγR was carried out using Biacore T100 (GE Healthcare). HBS-EP+ (GE Healthcare) was used as the running buffer, and the measurement temperature was set to 25° C. Chips produced by immobilizing the antigen peptide by the amine coupling method to a Series S Sencor Chip CM5 (GE Healthcare), or alternatively, chips produced by allowing preliminarily biotinylated antigen peptides to interact with and immobilize onto a Series S Sensor Chip SA (certified) (GE Healthcare) were used. Antibodies of interest were captured onto an antigen peptide-immobilized chip, and allowed to interact to each FcγR diluted with running buffer. To regenerate and repeatedly use the chip, the antibodies captured on the chip were washed off by reacting 10 mM glycine-HCl, pH 1.5.
(§2) The FcγR-binding activity of each antibody was assessed primarily using as an indicator the FcγR-binding activity and dissociation constant for FcγR.

| He/Con_2b (IIb binding) | Binder |
| --- | --- |
| 219 % of GpH7-A5/GpH7-B3/GpL16-k0 (=100) | B1 |
| 95.4 % of GpH7-A5/GpH7-B3/GpL16-k0 (=100) | B2 |
| 10.4 % of GpH7-A5/GpH7-B3/GpL16-k0 (=100) | B3 |
| 169 % of GpH7-A5/GpH7-B3/GpL16-k0 (=100) | B4 |
| 92.2 % of GpH7-A5/GpH7-B3/GpL16-k0 (=100) | B5 |
| 79.3 % of GpH7-A5/GpH7-B3/GpL16-k0 (=100) | B6 |
| 143 % of GpH7-A5/GpH7-B3/GpL16-k0 (=100) | B7 |
| 177 % of GpH7-A5/GpH7-B3/GpL16-k0 (=100) | B8 |
| 91.6 % of GpH7-A5/GpH7-B3/GpL16-k0 (=100) | B9 |
| 197 % of GpH7-A5/GpH7-B3/GpL16-k0 (=100) | B10 |
| 120 % of GpH7-A5/GpH7-B3/GpL16-k0 (=100) | B11 |
| 171 % of GpH7-A5/GpH7-B3/GpL16-k0 (=100) | B12 |
| 111 % of GpH7-A5/GpH7-B3/GpL16-k0 (=100) | B13 |
| 217 % of GpH7-A5/GpH7-B3/GpL16-k0 (=100) | B14 |
| 88.2 % of GpH7-A5/GpH7-B3/GpL16-k0 (=100) | B15 |
| 26 % of GpH7-A5/GpH7-B3/GpL16-k0 (=100) | B16 |
| 69.1 % of GpH7-A5/GpH7-B3/GpL16-k0 (=100) | B17 |
| 124 % of GpH7-A5/GpH7-B3/GpL16-k0 (=100) | B18 |
| 134 % of GpH7-A5/GpH7-B3/GpL16-k0 (=100) | B19 |
| 108 % of GpH7-A5/GpH7-B3/GpL16-k0 (=100) | B20 |

target: T2, FcγRIIIa extracellular domain with C-terminal His tag (human, UniProt P08637 17-208); assay: SPR (Biacore), relative binding
T2 construct: extracellular domain; also called FcgRIIIa; 3a; not shown: His tag attached to the C terminus
T2 sequence (P08637 17-208): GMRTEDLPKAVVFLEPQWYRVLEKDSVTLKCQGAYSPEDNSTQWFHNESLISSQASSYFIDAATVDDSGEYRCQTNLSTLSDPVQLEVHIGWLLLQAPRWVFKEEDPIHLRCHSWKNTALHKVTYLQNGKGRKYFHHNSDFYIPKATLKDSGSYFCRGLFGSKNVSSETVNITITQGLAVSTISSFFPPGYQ
Protocol: as §1, §2

| He/Con_3a (IIIa binding) | Binder |
| --- | --- |
| 79.3 % of GpH7-A5/GpH7-B3/GpL16-k0 (=100) | B1 |
| 56.4 % of GpH7-A5/GpH7-B3/GpL16-k0 (=100) | B2 |
| 5.2 % of GpH7-A5/GpH7-B3/GpL16-k0 (=100) | B3 |
| 32.8 % of GpH7-A5/GpH7-B3/GpL16-k0 (=100) | B4 |
| 73.4 % of GpH7-A5/GpH7-B3/GpL16-k0 (=100) | B5 |
| 54.5 % of GpH7-A5/GpH7-B3/GpL16-k0 (=100) | B6 |
| 20.7 % of GpH7-A5/GpH7-B3/GpL16-k0 (=100) | B7 |
| 65.1 % of GpH7-A5/GpH7-B3/GpL16-k0 (=100) | B8 |
| 39.4 % of GpH7-A5/GpH7-B3/GpL16-k0 (=100) | B9 |
| 33.3 % of GpH7-A5/GpH7-B3/GpL16-k0 (=100) | B10 |
| 93.1 % of GpH7-A5/GpH7-B3/GpL16-k0 (=100) | B11 |
| 28.7 % of GpH7-A5/GpH7-B3/GpL16-k0 (=100) | B12 |
| 30.3 % of GpH7-A5/GpH7-B3/GpL16-k0 (=100) | B13 |
| 31.4 % of GpH7-A5/GpH7-B3/GpL16-k0 (=100) | B14 |
| 64.5 % of GpH7-A5/GpH7-B3/GpL16-k0 (=100) | B15 |
| 10.2 % of GpH7-A5/GpH7-B3/GpL16-k0 (=100) | B16 |
| 31.6 % of GpH7-A5/GpH7-B3/GpL16-k0 (=100) | B17 |
| 48 % of GpH7-A5/GpH7-B3/GpL16-k0 (=100) | B18 |
| 104 % of GpH7-A5/GpH7-B3/GpL16-k0 (=100) | B19 |
| 73.5 % of GpH7-A5/GpH7-B3/GpL16-k0 (=100) | B20 |

target: T2, FcγRIIIa extracellular domain with …; assay: SPR (Biacore); He/Con_3a divided by He/Con_2b (reference: binding to FcγRIIb)
Protocol: as §1, §2

| He_3a/2b (IIIa/IIb) [ratio] | Binder |
| --- | --- |
| 0.36 | B1 |
| 0.59 | B2 |
| 0.5 | B3 |
| 0.19 | B4 |
| 0.8 | B5 |
| 0.69 | B6 |
| 0.14 | B7 |
| 0.37 | B8 |
| 0.43 | B9 |
| 0.17 | B10 |
| 0.77 | B11 |
| 0.17 | B12 |
| 0.27 | B13 |
| 0.14 | B14 |
| 0.73 | B15 |
| 0.39 | B16 |
| 0.46 | B17 |
| 0.39 | B18 |
| 0.78 | B19 |
| 0.68 | B20 |
